B1: ZNF207 (parent)
chain: FQPQPVQPQQGYIPPMAQPGLPPV

Variants of: B1
Assay: protein stability index of a GFP-peptide fusion (GPS, HEK-293T) (PSI 1-6); higher = more stable
Conditions: c terminus: a fixed tail appended
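Further: lentivirally expressed fusions sorted by FACS into six bins by GFP to DsRed ratio, PSI derived from sequencing read proportions per bin multiplied by bin number.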

Row | Variant | protein stability index
1 | FQIQPVQPQQGYIPPMAQPGLPPV [P3I] | 2.67
2 | FQKQPVQPQQGYIPPMAQPGLPPV [P3K] | 3.04
3 | FQVQPVQPQQGYIPPMAQPGLPPV [P3V] | 3.52
4 | FQSQPVQPQQGYIPPMAQPGLPPV [P3S] | 3.73
5 | FQRQPVQPQQGYIPPMAQPGLPPV [P3R] | 3.25
6 | FQYQPVQPQQGYIPPMAQPGLPPV [P3Y] | 3.13
7 | FQMQPVQPQQGYIPPMAQPGLPPV [P3M] | 3.38
8 | FQFQPVQPQQGYIPPMAQPGLPPV [P3F] | 2.49
9 | FQDQPVQPQQGYIPPMAQPGLPPV [P3D] | 3.62
10 | FQCQPVQPQQGYIPPMAQPGLPPV [P3C] | 3.47
11 | FQHQPVQPQQGYIPPMAQPGLPPV [P3H] | 3.8
12 | FQLQPVQPQQGYIPPMAQPGLPPV [P3L] | 3.2
13 | FQTQPVQPQQGYIPPMAQPGLPPV [P3T] | 3.95
14 | FQQQPVQPQQGYIPPMAQPGLPPV [P3Q] | 3.31
15 | FQGQPVQPQQGYIPPMAQPGLPPV [P3G] | 3.8
16 | FQEQPVQPQQGYIPPMAQPGLPPV [P3E] | 3.94
17 | FQWQPVQPQQGYIPPMAQPGLPPV [P3W] | 2.26
18 | FQNQPVQPQQGYIPPMAQPGLPPV [P3N] | 3.55
19 | FQAQPVQPQQGYIPPMAQPGLPPV [P3A] | 3.48
20 | HQPQPVQPQQGYIPPMAQPGLPPV [F1H] | 4.06
21 | GQPQPVQPQQGYIPPMAQPGLPPV [F1G] | 4.37
22 | DQPQPVQPQQGYIPPMAQPGLPPV [F1D] | 4.47
23 | QQPQPVQPQQGYIPPMAQPGLPPV [F1Q] | 4.18
24 | TQPQPVQPQQGYIPPMAQPGLPPV [F1T] | 3.5

Row | Variant | protein stability index
25 | YQPQPVQPQQGYIPPMAQPGLPPV [F1Y] | 3.61
26 | RQPQPVQPQQGYIPPMAQPGLPPV [F1R] | 4
27 | MQPQPVQPQQGYIPPMAQPGLPPV [F1M] | 3.9
28 | IQPQPVQPQQGYIPPMAQPGLPPV [F1I] | 3.9
29 | AQPQPVQPQQGYIPPMAQPGLPPV [F1A] | 4.29
30 | VQPQPVQPQQGYIPPMAQPGLPPV [F1V] | 3.91
31 | KQPQPVQPQQGYIPPMAQPGLPPV [F1K] | 4.37
32 | EQPQPVQPQQGYIPPMAQPGLPPV [F1E] | 4.36
33 | SQPQPVQPQQGYIPPMAQPGLPPV [F1S] | 4.38
34 | WQPQPVQPQQGYIPPMAQPGLPPV [F1W] | 3.26
35 | LQPQPVQPQQGYIPPMAQPGLPPV [F1L] | 4.03
36 | NQPQPVQPQQGYIPPMAQPGLPPV [F1N] | 4.33
37 | CQPQPVQPQQGYIPPMAQPGLPPV [F1C] | 3.07
38 | FQPQPEQPQQGYIPPMAQPGLPPV [V6E] | 3.61
39 | FQPQPGQPQQGYIPPMAQPGLPPV [V6G] | 3.1
40 | FQPQPRQPQQGYIPPMAQPGLPPV [V6R] | 2.92
41 | FQPQPLQPQQGYIPPMAQPGLPPV [V6L] | 3.06
42 | FQPQPIQPQQGYIPPMAQPGLPPV [V6I] | 2.96
43 | FQPQPFQPQQGYIPPMAQPGLPPV [V6F] | 2.19
44 | FQPQPNQPQQGYIPPMAQPGLPPV [V6N] | 2.86
45 | FQPQPDQPQQGYIPPMAQPGLPPV [V6D] | 3.26
46 | FQPQPKQPQQGYIPPMAQPGLPPV [V6K] | 3.08
47 | FQPQPMQPQQGYIPPMAQPGLPPV [V6M] | 2.71
48 | FQPQPCQPQQGYIPPMAQPGLPPV [V6C] | 2.89

Row | Variant | protein stability index
49 | FQPQPSQPQQGYIPPMAQPGLPPV [V6S] | 3.19
50 | FYPQPVQPQQGYIPPMAQPGLPPV [Q2Y] | 2.92
51 | FVPQPVQPQQGYIPPMAQPGLPPV [Q2V] | 2.51
52 | FNPQPVQPQQGYIPPMAQPGLPPV [Q2N] | 3.66
53 | FEPQPVQPQQGYIPPMAQPGLPPV [Q2E] | 3.98
54 | FRPQPVQPQQGYIPPMAQPGLPPV [Q2R] | 3.46
55 | FMPQPVQPQQGYIPPMAQPGLPPV [Q2M] | 3.13
56 | FFPQPVQPQQGYIPPMAQPGLPPV [Q2F] | 3.18
57 | FIPQPVQPQQGYIPPMAQPGLPPV [Q2I] | 1.9
58 | FCPQPVQPQQGYIPPMAQPGLPPV [Q2C] | 2.18
59 | FWPQPVQPQQGYIPPMAQPGLPPV [Q2W] | 2.54
60 | FSPQPVQPQQGYIPPMAQPGLPPV [Q2S] | 3.16
61 | FKPQPVQPQQGYIPPMAQPGLPPV [Q2K] | 3.54
62 | FDPQPVQPQQGYIPPMAQPGLPPV [Q2D] | 4.03
63 | FLPQPVQPQQGYIPPMAQPGLPPV [Q2L] | 3.49
64 | FGPQPVQPQQGYIPPMAQPGLPPV [Q2G] | 3.61
65 | FQPQFVQPQQGYIPPMAQPGLPPV [P5F] | 2.33
66 | FQPQSVQPQQGYIPPMAQPGLPPV [P5S] | 3.18
67 | FQPQLVQPQQGYIPPMAQPGLPPV [P5L] | 2.88
68 | FQPQIVQPQQGYIPPMAQPGLPPV [P5I] | 2.63
69 | FQPQQVQPQQGYIPPMAQPGLPPV [P5Q] | 2.99
70 | FQPQDVQPQQGYIPPMAQPGLPPV [P5D] | 3.18
71 | FQPQGVQPQQGYIPPMAQPGLPPV [P5G] | 3.45
72 | FQPQEVQPQQGYIPPMAQPGLPPV [P5E] | 3.62

Row | Variant | protein stability index
73 | FQPQAVQPQQGYIPPMAQPGLPPV [P5A] | 3.22
74 | FQPQKVQPQQGYIPPMAQPGLPPV [P5K] | 3.17
75 | FQPQNVQPQQGYIPPMAQPGLPPV [P5N] | 2.8
76 | FQPQHVQPQQGYIPPMAQPGLPPV [P5H] | 3.15
77 | FQPQTVQPQQGYIPPMAQPGLPPV [P5T] | 2.62
78 | FQPQWVQPQQGYIPPMAQPGLPPV [P5W] | 1.62
79 | FQPQCVQPQQGYIPPMAQPGLPPV [P5C] | 2.29
80 | FQPQVVQPQQGYIPPMAQPGLPPV [P5V] | 2.57
81 | FQPQYVQPQQGYIPPMAQPGLPPV [P5Y] | 2.59
82 | FQPQRVQPQQGYIPPMAQPGLPPV [P5R] | 2.58
83 | FQPQMVQPQQGYIPPMAQPGLPPV [P5M] | 2.61
84 | FQPYPVQPQQGYIPPMAQPGLPPV [Q4Y] | 1.83
85 | FQPNPVQPQQGYIPPMAQPGLPPV [Q4N] | 3.43
86 | FQPIPVQPQQGYIPPMAQPGLPPV [Q4I] | 2.31
87 | FQPLPVQPQQGYIPPMAQPGLPPV [Q4L] | 2.88
88 | FQPVPVQPQQGYIPPMAQPGLPPV [Q4V] | 3.12
89 | FQPDPVQPQQGYIPPMAQPGLPPV [Q4D] | 3.01
90 | FQPWPVQPQQGYIPPMAQPGLPPV [Q4W] | 1.81
91 | FQPRPVQPQQGYIPPMAQPGLPPV [Q4R] | 2.78
92 | FQPMPVQPQQGYIPPMAQPGLPPV [Q4M] | 2.72
93 | FQPKPVQPQQGYIPPMAQPGLPPV [Q4K] | 2.92
94 | FQPGPVQPQQGYIPPMAQPGLPPV [Q4G] | 2.71
